This assay has as its target AcrE1 with a C-terminal 6×His tag (Pseudomonas phage JBD5). Briefly: SEC; purified AcrE1 CHis; single peak; elution volume compared with a standard curve to estimate the native molecular mass.

As to “AcrE1 with a C-terminal 6×His tag (natural protein)”, the stoichiometry N is 2.
